Reference: the supplement of paper PMC10724198
± gives the standard deviation of the averaged measurements.

These sequences were tested on Saccharomyces cerevisiae (assay: protein stability index of tFT-peptide fusion (C-terminal peptide) (PSI (0-1 scale)); higher = more stable (slower turnover)). Details: genetic background: wild type; temperature: 30 C.
Procedure: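 Multiplexed protein stability (MPS) profiling in S. cerevisiae. Random 12-aa peptides (tFT-X12 library) are fused to the C-terminus of a sfGFP-mCherry tandem fluorescent timer, after mCherry and a GGGS linker. Cells are FACS-sorted into 8 mCherry/sfGFP bins and deep-sequenced. The protein stability index (PSI) is the read-weighted bin average, scaled from 0 (unstable) to 1 (stable). Only peptides with >10 reads are reported; cells were grown at 30 °C in SC-His with glucose.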
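Note: PSI is a weighted mean of sequencing reads over stability bins, variants kept only with over 10 reads, mCherry proximal and sfGFP distal, peptide attached via GGGS linker.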

Question: Which protein stability index does the source give for QMKRPSCKGTCD here?
Answer: 0.679 ± 0.044

Question: How did the protein stability index turn out when PPLPRLPPPPLP was run?
Answer: 0.627 ± 0.029

Question: With SWFCSWVVRFFR as the sequence, how does the protein stability index read?
Answer: 0.691 ± 0.065

Question: RRSHGLAGPKKG was tested. Which protein stability index did it give?
Answer: 0.674 ± 0.05

Question: With GGWWSCAWGVRG as the sequence, how does the protein stability index read?
Answer: 0.627 ± 0.065

Question: SLPFSPSFLSSF was tested. Which protein stability index did it give?
Answer: 0.67 ± 0.015

Question: With FLSFLFTGFIQL as the sequence, how does the protein stability index read?
Answer: 0.595 ± 0.017

Question: With DGVWVRCGTLGF as the sequence, how does the protein stability index read?
Answer: 0.715 ± 0.078

Question: How did the protein stability index turn out when NVGACRVMKTVY was run?
Answer: 0.6876 ± 0.003

Question: How did the protein stability index turn out when GLTWFRQARAAL was run?
Answer: 0.718 ± 0.039

Question: Which protein stability index does the source give for PFAHSATFLSLG here?
Answer: 0.774 ± 0.052

Question: SGRGWILCAYRV was tested. Which protein stability index did it give?
Answer: 0.632 ± 0.024

Question: With SPVPLPPPLPSL as the sequence, how does the protein stability index read?
Answer: 0.664 ± 0.023

Question: Which protein stability index does the source give for LPPSLPPRLPPP here?
Answer: 0.658 ± 0.04

Question: How did the protein stability index turn out when KTRHMQGNRVDS was run?
Answer: 0.603 ± 0.045

Question: How did the protein stability index turn out when PPPPFPPPSPPL was run?
Answer: 0.7147 ± 0.0063

Question: How did the protein stability index turn out when SGRSGECEGSWD was run?
Answer: 0.662 ± 0.13

Question: For RIRRITAGRQRY, which protein stability index is on record?
Answer: 0.793 ± 0.067

Question: Which protein stability index does the source give for TLWLVSTAVLDC here?
Answer: 0.534 ± 0.036

Question: For FRDLRSSVLVLP, which protein stability index is on record?
Answer: 0.6599 ± 0.0058

Question: How did the protein stability index turn out when PPPPSPFPLPSP was run?
Answer: 0.6846 ± 0.0024

Question: Which protein stability index does the source give for SPARPPFPPPPL here?
Answer: 0.72 ± 0.029

Question: How did the protein stability index turn out when PRGKVLPFAFAC was run?
Answer: 0.554 ± 0.019

Question: For GSSGQPDSPPIS, which protein stability index is on record?
Answer: 0.684 ± 0.015

Question: HPRSAYSLAASL was tested. Which protein stability index did it give?
Answer: 0.6633 ± 0.00083

Question: DAVRRSSLSLAT was tested. Which protein stability index did it give?
Answer: 0.711 ± 0.16

Question: With MWRWRAHVDRFR as the sequence, how does the protein stability index read?
Answer: 0.6831 ± 0.0058

Question: With ILCPFSGCGAGG as the sequence, how does the protein stability index read?
Answer: 0.683 ± 0.022

Question: Which protein stability index does the source give for FSPPTLSLPGPI here?
Answer: 0.721 ± 0.0083

Question: With RVIEWHEEKLRV as the sequence, how does the protein stability index read?
Answer: 0.783 ± 0.017

Question: For PPLSLSPYPLPH, which protein stability index is on record?
Answer: 0.69464 ± 0.0002

Question: How did the protein stability index turn out when QGLSHVVTCLFG was run?
Answer: 0.721 ± 0.07

Question: RLPSLTGLELFS was tested. Which protein stability index did it give?
Answer: 0.685 ± 0.025

Question: With KTRPVCKVSCKL as the sequence, how does the protein stability index read?
Answer: 0.77 ± 0.092

Question: How did the protein stability index turn out when QKSGELVKNVRI was run?
Answer: 0.673 ± 0.035

Question: ATPPPVRPSPIL was tested. Which protein stability index did it give?
Answer: 0.677 ± 0.035

Question: How did the protein stability index turn out when VEVKEKLKLWSH was run?
Answer: 0.691 ± 0.021

Question: Which protein stability index does the source give for LENIHVLETIFT here?
Answer: 0.6022 ± 0.0054

Question: Which protein stability index does the source give for VRERVRRWVGDG here?
Answer: 0.5752 ± 0.0053

Question: Which protein stability index does the source give for LSPPPLPPVPSP here?
Answer: 0.712 ± 0.015

Question: With PPLPAPPQSPHT as the sequence, how does the protein stability index read?
Answer: 0.705 ± 0.028

Question: How did the protein stability index turn out when AGHFRVRWGVWS was run?
Answer: 0.651 ± 0.056

Question: For PPPPPPPHLPSL, which protein stability index is on record?
Answer: 0.711 ± 0.079

Question: Which protein stability index does the source give for GPSVPPLPRHEL here?
Answer: 0.728 ± 0.051

Question: For LLPHALHVPFHL, which protein stability index is on record?
Answer: 0.707 ± 0.1

Question: How did the protein stability index turn out when PPATTPASTNLQ was run?
Answer: 0.7 ± 0.017

Question: For PVPPLPPRPPPL, which protein stability index is on record?
Answer: 0.619 ± 0.11

Question: With REVSGLTIRMVR as the sequence, how does the protein stability index read?
Answer: 0.659 ± 0.03

Question: With FSLFSLPFPFPL as the sequence, how does the protein stability index read?
Answer: 0.7752 ± 0.0015

Question: For WPVRNRIQPPPR, which protein stability index is on record?
Answer: 0.705 ± 0.051

Question: For AAPAAPATPSPR, which protein stability index is on record?
Answer: 0.716 ± 0.065

Question: How did the protein stability index turn out when KILRKVIKQKGN was run?
Answer: 0.599 ± 0.041

Question: With GLAPYRPVITFS as the sequence, how does the protein stability index read?
Answer: 0.675 ± 0.002

Question: SHESRPNLGCIY was tested. Which protein stability index did it give?
Answer: 0.678 ± 0.026

Question: Which protein stability index does the source give for GGGWRGRRVADF here?
Answer: 0.701 ± 0.043

Question: TLARLISGKRLL was tested. Which protein stability index did it give?
Answer: 0.648 ± 0.022

Question: For PPGNPPPRRLTS, which protein stability index is on record?
Answer: 0.695 ± 0.053

Question: How did the protein stability index turn out when PWPFKQHEHRRA was run?
Answer: 0.847 ± 0.015

Question: How did the protein stability index turn out when LGLWSSVFGSSL was run?
Answer: 0.743 ± 0.018

Question: For TQRIEKEPTKKY, which protein stability index is on record?
Answer: 0.703 ± 0.04

Question: Which protein stability index does the source give for DTGLGSVVFVVF here?
Answer: 0.688 ± 0.036

Question: For GGGGGRAQEVQG, which protein stability index is on record?
Answer: 0.717 ± 0.059

Question: Which protein stability index does the source give for RIRVKSLAPSPS here?
Answer: 0.74 ± 0.17

Question: For PQAQCTALLTQR, which protein stability index is on record?
Answer: 0.659 ± 0.085

Question: For RSPAPPAPPHLP, which protein stability index is on record?
Answer: 0.7068 ± 0.0012

Question: How did the protein stability index turn out when PPPCPPPRRHPP was run?
Answer: 0.605 ± 0.022

Question: QGTHRGSGGVTE was tested. Which protein stability index did it give?
Answer: 0.716 ± 0.023

Question: SRASTGPPPPGT was tested. Which protein stability index did it give?
Answer: 0.692 ± 0.026

Question: Which protein stability index does the source give for DIRFSAARRPTG here?
Answer: 0.6627 ± 0.0053

Question: Which protein stability index does the source give for GVSAKVRRETVR here?
Answer: 0.725 ± 0.078

Question: For FGLWGFGRPRGW, which protein stability index is on record?
Answer: 0.721 ± 0.031

Question: VGGRMGVDEGKG was tested. Which protein stability index did it give?
Answer: 0.669 ± 0.02

Question: LTLCYGRLPPRL was tested. Which protein stability index did it give?
Answer: 0.771 ± 0.022

Question: For SFVQLNGAVDLA, which protein stability index is on record?
Answer: 0.717 ± 0.031

Question: Which protein stability index does the source give for AVNLWSRFFDLP here?
Answer: 0.686 ± 0.052

Question: With PLDLPPLPLPPP as the sequence, how does the protein stability index read?
Answer: 0.763 ± 0.15

Question: GWGFVGGTVAAV was tested. Which protein stability index did it give?
Answer: 0.705 ± 0.034

Question: Which protein stability index does the source give for FCGGYHATVKMR here?
Answer: 0.68 ± 0.015

Question: For PPPLPPLSPPPS, which protein stability index is on record?
Answer: 0.749 ± 0.023

Question: Which protein stability index does the source give for RPPSLSPAPAPP here?
Answer: 0.73 ± 0.027

Question: GRLRGGGPVAAR was tested. Which protein stability index did it give?
Answer: 0.692 ± 0.053

Question: AGGGARLGVGRA was tested. Which protein stability index did it give?
Answer: 0.637 ± 0.065

Question: Which protein stability index does the source give for ASRHGALIVLST here?
Answer: 0.6701 ± 0.0053

Question: For GELPGLFRCCLM, which protein stability index is on record?
Answer: 0.492 ± 0.072

Question: For SLCLPFPSSPPP, which protein stability index is on record?
Answer: 0.677 ± 0.0083

Question: How did the protein stability index turn out when FTACSVCVETMN was run?
Answer: 0.678 ± 0.17

Question: Which protein stability index does the source give for LGAAMRSAVEAA here?
Answer: 0.64 ± 0.013

Question: How did the protein stability index turn out when FRIVLIRASDPS was run?
Answer: 0.625 ± 0.032

Question: For SGSCPSSTSATT, which protein stability index is on record?
Answer: 0.732 ± 0.057

Question: DSRPLASAVRLS was tested. Which protein stability index did it give?
Answer: 0.681 ± 0.017

Question: Which protein stability index does the source give for VPRSSGAILGFL here?
Answer: 0.637 ± 0.015

Question: Which protein stability index does the source give for RFEFFHLVSWLL here?
Answer: 0.644 ± 0.052

Question: Which protein stability index does the source give for PFCVALVDVGFW here?
Answer: 0.564 ± 0.029

Question: For QYSFFLRSPEVF, which protein stability index is on record?
Answer: 0.512 ± 0.038

Question: With LTASPPRLPPFP as the sequence, how does the protein stability index read?
Answer: 0.701 ± 0.0081

Question: For WSGDLRNIEFAR, which protein stability index is on record?
Answer: 0.816 ± 0.1

Question: How did the protein stability index turn out when PPSAPPPLPPLL was run?
Answer: 0.7599 ± 0.0043

Question: How did the protein stability index turn out when MSRPGEGSYIGD was run?
Answer: 0.652 ± 0.017
